Test results reported in patent US7256011.

Tested on: PL-FXa-b2AR fusion protein (ED - Factor Xa cleavage site - beta2-adrenergic receptor) on HEK293 transient transfectant cells

Factor Xa
EFC activity (relative luminescent units, RLU): a difference in about 30,000 RLUs was observed over a range in concentration of FXa of about 10^-3 to 10^1 ug/mL
